Experimental data: US20160289339A1 (IMMUNWORK, published 2016)

Legend:
[1] = biological target: T1, synthetic polypeptide maF1-2 (human); assay: ELISA on coated synthetic polypeptides
T1 peptide: GSCSVADWQMPP
Method: (§1) Anti-migis-α mAbs 8G7 (Igγ2b, κ) and 29C11 (Igγ1, κ) were purified from hybridoma culturing medium by using Protein A Sepharose CL-4B medium (GE Healthcare). Purified mAbs were stored in PBS at the concentration of 1 mg/ml. A mouse anti-human IgA1.Fc mAb 3C10 (Igγ1, Abcam) and mouse total IgG (Sigma-Aldrich) were used as positive and negative controls, respectively. Various migis-α-containing recombinant proteins and several irrelevant proteins were tested in ELISA. Proteins were coated at 1 μg/ml in 0.05M carbonate/bicarbonate buffers in ELISA plates at 4° C. for overnight. Plates were washed with PBST (PBS with 0.05% Tween® 20) and blocked by PBS/BSA (PBS with 1% BSA) at room temperature for 1 h. After washing with PBST, mAbs at 1 μg/ml in PBS/BSA were added into plates and incubated at room temperature for 1 hr. Plates were washed with PBST and then HRP-conjugated goat anti-mouse IgG.Fc antibodies 1:10,000 diluted in PBS/BSA were adding into plates. After incubation at room temperature for 1 hr and washing with PBST, Tetramethylbenzidine substrates (Clinical Scientific Products) were added into plates for colorimetric measurement.
(§2) Synthetic migis-αL polypeptides were further used to study binding epitopes of anti-migis-α mAbs by ELISA. Polypeptides maFL (SEQ ID NO:9), maFa (SEQ ID NO:10), maFb (SEQ ID NO:11), and maFc (SEQ ID NO:12) are fragments that represent the full length, the N-terminal part, the middle part, and the C-terminal part of migis-αL sequences (FIG. 3A). Polypeptides maF1-2 (SEQ ID NO:13), maF1-3 (SEQ ID NO:14), maF2 (SEQ ID NO:15), and maF2-1 (SEQ ID NO:16) were designed to test shorter sequences for binding activity of anti-migis-α mAbs. Polypeptides at 10 μg/ml were coated in micro-well plates for reacting and ELISA procedures were followed as described above. […] In contrast, 29C11 is capable of binding to both the N-terminal and the middle part of migis-αL sequences, and also reacting to short fragments of the N-terminal polypeptides. (FIGS. 3B-C).

[2] = biological target: T2, synthetic polypeptide maF1-3 (human); assay: ELISA on coated synthetic polypeptides
T2 peptide: CSVADWQMPPPY
Method: as §1, §2

[3] = biological target: T3, synthetic polypeptide maF2 (human); assay: ELISA on coated synthetic polypeptides
T3 peptide: VADWQMPPPYVV
Method: as §1, §2

[4] = biological target: T4, synthetic polypeptide maF2-1 (human); assay: ELISA on coated synthetic polypeptides
T4 peptide: DWQMPPPYVVLD
Method: as §1, §2

[5] = biological target: T5, mα1.Fc recombinant protein (human, UniProt P01876 103-333); assay: ELISA screening of hybridoma culture medium
T5 construct: leader/His tag/linker of the vector as for the other constructs
Method: Fifty microgram of the chimeric protein was used to immunize each Balb/c mouse subcutaneously for 4-5 times in a two-week interval. Three days before cell fusion, ten microgram of the chimeric protein was injected into each mouse intravenously. The splenocytes isolated from immunized mice were fused with mouse myeloma cells FO by using polyethylene glycol 1500 (Roche). After fusion procedures, cells were grown in HAT selection medium for 10-12 days and the cultured medium was transferred for ELISA screening (detailed in the next section). […] Hybridoma clones which produce antibodies reacting to mα1.FcL-LZ and not reacting to mα1.Fc were identified as candidates by using horseradish peroxidase (HRP)-conjugated goat anti-mouse IgG.Fc antibodies (Jackson ImmunoResearch) in ELISA. To further test the binding of hybridoma candidates towards mIgA-expressing B cells, 2×10⁵ DAKIKI cells were incubated with 100 μl of cultured medium on ice for 30 min. Cells were washed with staining buffers [PBS with 2% fetal bovine serum (FBS, Invitrogen) and 0.05% sodium azide] and incubated with FITC-labeled rabbit F(ab)′₂ anti-mouse IgG antibodies (AbD Serotech) 1:400 diluted in staining buffers on ice for 30 min. After washing, cells were resuspended in 200 μl of staining buffer and subjected to flow cytometric analyses. […]

[6] = biological target: T6, mα1.FcS expressed on Ramos cells (human, UniProt P01876 103-398); assay: flow cytometry on Ramos/mα1.FcS cells, 1 µg/ml
T6 construct: also called Ramos/mα1.FcS
Method: (§3) For flow cytometric assays in the examples, 3C10 was used as a positive control of detecting mIgA expression and a mouse anti-human mIgE mAb 4B12 (Igγ1, κ) was served as a negative control. To perform the cell staining, 10⁶ cells were washed and incubated with mAbs in 100 μl of staining buffers on ice for 30 min. Cells were subsequently washed with staining buffers and incubated with FITC-labeled rabbit F(ab)′₂ anti-mouse IgG antibodies […] 1:400 diluted in 100 μl staining buffers on ice for 30 min. After washing, cells were resuspended in 400 μl of staining buffers and subjected to flow cytometric analyses in a FACSCanto II (BD Biosciences). […] At the low concentrations (1 μg/ml) staining signals of 29C11 towards these three mIgA-expressing B cells are undetectable.

[7] = biological target: T7, synthetic polypeptide maFa, N-terminal part of migis-αL (human); assay: ELISA on coated synthetic polypeptides, 10 µg/ml
T7 construct: also called the N-terminal polypeptide
T7 peptide: GSCSVADWQMPPPYVVLD
Method: as §1
Synthetic migis-αL polypeptides were further used to study binding epitopes of anti-migis-α mAbs by ELISA. […]

[8] = biological target: T8, mα1.FcL-456S-LZ recombinant protein (human); assay: ELISA, serial dilution of mAb on coated mα1.FcL-456S-LZ
T8 construct: also called mα1.FcL-LZ
T8 chain: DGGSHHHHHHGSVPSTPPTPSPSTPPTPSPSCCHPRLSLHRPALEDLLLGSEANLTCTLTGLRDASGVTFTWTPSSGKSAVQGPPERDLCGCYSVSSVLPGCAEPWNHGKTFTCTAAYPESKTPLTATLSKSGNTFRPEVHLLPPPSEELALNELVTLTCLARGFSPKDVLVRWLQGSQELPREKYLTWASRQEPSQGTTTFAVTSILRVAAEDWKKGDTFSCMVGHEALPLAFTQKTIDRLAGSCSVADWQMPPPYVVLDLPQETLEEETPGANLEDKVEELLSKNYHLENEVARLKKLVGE
Method: as §1
The binding curves were analyzed by the software Prism® (GraphPad) and the equation used for calculation was shown below.

[9] = biological target: T9, membrane-bound IgA (mIgA) on DAKIKI cells (human, UniProt P01876 1-398); assay: flow cytometry on DAKIKI cells, 10 µg/ml against 1 µg/ml
T9 construct: whole, on cells; also called mIgA-expressing B cells
Method: as §3

[10] = biological target: mα1.FcL-456C expressed on Ramos cells (human, UniProt P01876 103-398); assay: flow cytometry on Ramos/mα1.FcL-456S (so in the source) cells, 1 µg/ml
Method: as §3

T9 sequence (P01876 whole entry): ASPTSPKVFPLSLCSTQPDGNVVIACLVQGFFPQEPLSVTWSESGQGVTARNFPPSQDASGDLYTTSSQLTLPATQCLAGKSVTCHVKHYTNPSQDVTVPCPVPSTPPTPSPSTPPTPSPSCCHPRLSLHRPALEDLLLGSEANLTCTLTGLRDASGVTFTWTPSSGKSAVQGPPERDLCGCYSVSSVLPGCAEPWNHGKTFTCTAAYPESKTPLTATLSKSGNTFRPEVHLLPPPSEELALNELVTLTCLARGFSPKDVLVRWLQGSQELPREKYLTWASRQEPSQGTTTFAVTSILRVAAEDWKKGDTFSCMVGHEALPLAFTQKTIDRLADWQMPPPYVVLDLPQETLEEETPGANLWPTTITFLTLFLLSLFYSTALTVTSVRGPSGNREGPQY

B1: anti-migis-α mAb 8G7 (antibody, V domains shown)
VH: EVQLQESGPSLVKPSQTLSLTCSVTGDSITNGYWNWIRKFPGNKLEYMGYISYSGSTYYNPSLKSRIFITRDTSKNQYYLQLNSVTTEDTAIYYCARWLGGRAYWGQGTTLIVSS
VL: DIVMTQSQKFMSTSVGDRVSVTCKASQNVGTNVVWYQQKPGQSPKTLIYSASRRFSGVPDRFTGSGSGTDFTLTISNVQSEDLAEYFCQQYNSYPLTFGAGTKLELK
notes: also called 8G7 mAb
B1: no binding (tested: 10 µg/ml peptide coated) [1]; no binding (tested: 10 µg/ml peptide coated) [2]; no binding (tested: 10 µg/ml peptide coated) [3]. For the same binder, the binding result [4] was “no binding (tested: 10 µg/ml peptide coated)”, the binding result [5] was “no binding” and the “fold of MFI over background against that of 29C11, (MFI8G7-MFIbackground)/(MFI29C11-MFIbackground)” value [6] was 10.4 fold. For the same binder, the binding result [7] was “binds”, the “fold lower concentration at half the maximum binding than 29C11” value [8] was ~6 fold and the “fold of the increment of MFI (high minus low concentration, over background) against that of 29C11” value [9] was 12.5 fold. For the same binder, the “fold of MFI over background against that of 29C11, (MFI8G7-MFIbackground)/(MFI29C11-MFIbackground)” value [10] was 13.5 fold.
